Test results reported in patent US20260167699A1 (Chugai, published 2026).

B1: GpH7-A5/GpH7-B3 variant K326_05P/GpL16-k0 (antibody, human IgG1, kappa)
heavy 1: not shown
heavy 2: not shown
light: DIVMTQSPLSLPVTPGEPASISCQASESLVHSNRNTYLHWYLQKPGQSPQLLIYKVSNRFSGVPDRFSGSGSGTDFTLKISRVEAEDVGVYYCSQNTHVPPTFGQGTKVEIERTVAAPSVFIFPPSDEQLKSGTASVVCLLNNFYPREAKVQWKVDNALQSGNSQESVTEQDSKDSTYSLSSTLTLSKADYEKHKVYACEVTHQGLSSPVTKSFNRGEC
notes: He Ab; copies: 1 + 1 + 2
B2: GpH7-A5/GpH7-B3 variant L328_02A/GpL16-k0 (antibody, human IgG1, kappa)
heavy 1: not shown
heavy 2: not shown
light: B1 light
notes: He Ab; copies: 1 + 1 + 2
B3: GpH7-A5/GpH7-B3 variant L235_03V/GpL16-k0 (antibody, human IgG1, kappa)
heavy 1: not shown
heavy 2: not shown
light: B1 light
notes: He Ab; copies: 1 + 1 + 2
B4: GpH7-A5/GpH7-B3 variant L235_06M/GpL16-k0 (antibody, human IgG1, kappa)
heavy 1: not shown
heavy 2: not shown
light: B1 light
notes: He Ab; copies: 1 + 1 + 2
B5: GpH7-A5/GpH7-B3 variant K326_16H/GpL16-k0 (antibody, human IgG1, kappa)
heavy 1: not shown
heavy 2: not shown
light: B1 light
notes: He Ab; copies: 1 + 1 + 2
B6: GpH7-A5/GpH7-B3 variant L235_13S/GpL16-k0 (antibody, human IgG1, kappa)
heavy 1: not shown
heavy 2: not shown
light: B1 light
notes: He Ab; copies: 1 + 1 + 2
B7: GpH7-A5/GpH7-B3 variant L234_15Y/GpL16-k0 (antibody, human IgG1, kappa)
heavy 1: not shown
heavy 2: not shown
light: B1 light
notes: He Ab; copies: 1 + 1 + 2
B8: GpH7-A5/GpH7-B3 variant L234_04F/GpL16-k0 (antibody, human IgG1, kappa)
heavy 1: not shown
heavy 2: not shown
light: B1 light
notes: He Ab; copies: 1 + 1 + 2
B9: GpH7-A5/GpH7-B3 variant L234_16H/GpL16-k0 (antibody, human IgG1, kappa)
heavy 1: not shown
heavy 2: not shown
light: B1 light
notes: He Ab; copies: 1 + 1 + 2
B10: GpH7-A5/GpH7-B3 variant L328_06M/GpL16-k0 (antibody, human IgG1, kappa)
heavy 1: not shown
heavy 2: not shown
light: B1 light
notes: He Ab; copies: 1 + 1 + 2
B11: GpH7-A5/GpH7-B3 variant K326_10E/GpL16-k0 (antibody, human IgG1, kappa)
heavy 1: not shown
heavy 2: not shown
light: B1 light
notes: He Ab; copies: 1 + 1 + 2
B12: GpH7-A5/GpH7-B3 variant L235_15Y/GpL16-k0 (antibody, human IgG1, kappa)
heavy 1: not shown
heavy 2: not shown
light: B1 light
notes: He Ab; copies: 1 + 1 + 2
B13: GpH7-A5/GpH7-B3 variant L235_10E/GpL16-k0 (antibody, human IgG1, kappa)
heavy 1: not shown
heavy 2: not shown
light: B1 light
notes: He Ab; copies: 1 + 1 + 2
B14: GpH7-A5/GpH7-B3 variant K326_08L/GpL16-k0 (antibody, human IgG1, kappa)
heavy 1: not shown
heavy 2: not shown
light: B1 light
notes: He Ab; copies: 1 + 1 + 2
B15: GpH7-A5/GpH7-B3 variant K326_12R/GpL16-k0 (antibody, human IgG1, kappa)
heavy 1: not shown
heavy 2: not shown
light: B1 light
notes: He Ab; copies: 1 + 1 + 2
B16: GpH7-A5/GpH7-B3 variant L328_18N/GpL16-k0 (antibody, human IgG1, kappa)
heavy 1: not shown
heavy 2: not shown
light: B1 light
notes: He Ab; copies: 1 + 1 + 2
B17: GpH7-A5/GpH7-B3 variant L235_02A/GpL16-k0 (antibody, human IgG1, kappa)
heavy 1: not shown
heavy 2: not shown
light: B1 light
notes: He Ab; copies: 1 + 1 + 2
B18: GpH7-A5/GpH7-B3 variant L234_13S/GpL16-k0 (antibody, human IgG1, kappa)
heavy 1: not shown
heavy 2: not shown
light: B1 light
notes: He Ab; copies: 1 + 1 + 2
B19: GpH7-A5/GpH7-B3 variant L234_06M/GpL16-k0 (antibody, human IgG1, kappa)
heavy 1: not shown
heavy 2: not shown
light: B1 light
notes: He Ab; copies: 1 + 1 + 2
B20: GpH7-A5/GpH7-B3 variant L235_18N/GpL16-k0 (antibody, human IgG1, kappa)
heavy 1: not shown
heavy 2: not shown
light: B1 light
notes: He Ab; copies: 1 + 1 + 2
B21: GpH7-A5/GpH7-B3 variant K326_13S/GpL16-k0 (antibody, human IgG1, kappa)
heavy 1: not shown
heavy 2: not shown
light: B1 light
notes: He Ab; copies: 1 + 1 + 2
B22: GpH7-A5/GpH7-B3 variant L234_14T/GpL16-k0 (antibody, human IgG1, kappa)
heavy 1: not shown
heavy 2: not shown
light: B1 light
notes: He Ab; copies: 1 + 1 + 2
B23: GpH7-A5/GpH7-B3 variant L234_05P/GpL16-k0 (antibody, human IgG1, kappa)
heavy 1: not shown
heavy 2: not shown
light: B1 light
notes: He Ab; copies: 1 + 1 + 2
B24: GpH7-A5/GpH7-B3 variant K326_18N/GpL16-k0 (antibody, human IgG1, kappa)
heavy 1: not shown
heavy 2: not shown
light: B1 light
notes: He Ab; copies: 1 + 1 + 2
B25: GpH7-A5/GpH7-B3 variant L235_09D/GpL16-k0 (antibody, human IgG1, kappa)
heavy 1: not shown
heavy 2: not shown
light: B1 light
notes: He Ab; copies: 1 + 1 + 2
B26: GpH7-A5/GpH7-B3 variant L234_10E/GpL16-k0 (antibody, human IgG1, kappa)
heavy 1: not shown
heavy 2: not shown
light: B1 light
notes: He Ab; copies: 1 + 1 + 2
B27: GpH7-A5/GpH7-B3 variant L328_14T/GpL16-k0 (antibody, human IgG1, kappa)
heavy 1: not shown
heavy 2: not shown
light: B1 light
notes: He Ab; copies: 1 + 1 + 2
B28: GpH7-A5/GpH7-B3 variant L328_03V/GpL16-k0 (antibody, human IgG1, kappa)
heavy 1: not shown
heavy 2: not shown
light: B1 light
notes: He Ab; copies: 1 + 1 + 2
B29: GpH7-A5/GpH7-B3 variant K326_06M/GpL16-k0 (antibody, human IgG1, kappa)
heavy 1: not shown
heavy 2: not shown
light: B1 light
notes: He Ab; copies: 1 + 1 + 2
B30: GpH7-A5/GpH7-B3 variant L235_16H/GpL16-k0 (antibody, human IgG1, kappa)
heavy 1: not shown
heavy 2: not shown
light: B1 light
notes: He Ab; copies: 1 + 1 + 2
B31: GpH7-A5/GpH7-B3 variant L328_07I/GpL16-k0 (antibody, human IgG1, kappa)
heavy 1: not shown
heavy 2: not shown
light: B1 light
notes: He Ab; copies: 1 + 1 + 2
B32: GpH7-A5/GpH7-B3 variant L234_03V/GpL16-k0 (antibody, human IgG1, kappa)
heavy 1: not shown
heavy 2: not shown
light: B1 light
notes: He Ab; copies: 1 + 1 + 2
B33: GpH7-A5/GpH7-B3 variant L235_05P/GpL16-k0 (antibody, human IgG1, kappa)
heavy 1: not shown
heavy 2: not shown
light: B1 light
notes: He Ab; copies: 1 + 1 + 2
B34: GpH7-A5/GpH7-B3 variant L235_07I/GpL16-k0 (antibody, human IgG1, kappa)
heavy 1: not shown
heavy 2: not shown
light: B1 light
notes: He Ab; copies: 1 + 1 + 2
B35: GpH7-A5/GpH7-B3 variant L234_01G/GpL16-k0 (antibody, human IgG1, kappa)
heavy 1: not shown
heavy 2: not shown
light: B1 light
notes: He Ab; copies: 1 + 1 + 2
B36: GpH7-A5/GpH7-B3 variant L328_16H/GpL16-k0 (antibody, human IgG1, kappa)
heavy 1: not shown
heavy 2: not shown
light: B1 light
notes: He Ab; copies: 1 + 1 + 2
B37: GpH7-A5/GpH7-B3 variant L235_04F/GpL16-k0 (antibody, human IgG1, kappa)
heavy 1: not shown
heavy 2: not shown
light: B1 light
notes: He Ab; copies: 1 + 1 + 2
B38: GpH7-A5/GpH7-B3 variant K326_07I/GpL16-k0 (antibody, human IgG1, kappa)
heavy 1: not shown
heavy 2: not shown
light: B1 light
notes: He Ab; copies: 1 + 1 + 2
B39: GpH7-A5/GpH7-B3 variant L235_14T/GpL16-k0 (antibody, human IgG1, kappa)
heavy 1: not shown
heavy 2: not shown
light: B1 light
notes: He Ab; copies: 1 + 1 + 2
B40: GpH7-A5/GpH7-B3 variant K326_09D/GpL16-k0 (antibody, human IgG1, kappa)
heavy 1: not shown
heavy 2: not shown
light: B1 light
notes: He Ab; copies: 1 + 1 + 2
B41: GpH7-A5/GpH7-B3 variant L234_18N/GpL16-k0 (antibody, human IgG1, kappa)
heavy 1: not shown
heavy 2: not shown
light: B1 light
notes: He Ab; copies: 1 + 1 + 2
B42: GpH7-A5/GpH7-B3 variant L234_02A/GpL16-k0 (antibody, human IgG1, kappa)
heavy 1: not shown
heavy 2: not shown
light: B1 light
notes: He Ab; copies: 1 + 1 + 2
B43: GpH7-A5/GpH7-B3 variant K326_19Q/GpL16-k0 (antibody, human IgG1, kappa)
heavy 1: not shown
heavy 2: not shown
light: B1 light
notes: He Ab; copies: 1 + 1 + 2
B44: GpH7-A5/GpH7-B3 variant L235_20W/GpL16-k0 (antibody, human IgG1, kappa)
heavy 1: not shown
heavy 2: not shown
light: B1 light
notes: He Ab; copies: 1 + 1 + 2
B45: GpH7-A5/GpH7-B3 variant L235_01G/GpL16-k0 (antibody, human IgG1, kappa)
heavy 1: not shown
heavy 2: not shown
light: B1 light
notes: He Ab; copies: 1 + 1 + 2
B46: GpH7-A5/GpH7-B3 variant L234_07I/GpL16-k0 (antibody, human IgG1, kappa)
heavy 1: not shown
heavy 2: not shown
light: B1 light
notes: He Ab; copies: 1 + 1 + 2
B47: GpH7-A5/GpH7-B3 variant K326_15Y/GpL16-k0 (antibody, human IgG1, kappa)
heavy 1: not shown
heavy 2: not shown
light: B1 light
notes: He Ab; copies: 1 + 1 + 2
B48: GpH7-A5/GpH7-B3 variant K326_20W/GpL16-k0 (antibody, human IgG1, kappa)
heavy 1: not shown
heavy 2: not shown
light: B1 light
notes: He Ab; copies: 1 + 1 + 2
B49: GpH7-A5/GpH7-B3 variant L328_04F/GpL16-k0 (antibody, human IgG1, kappa)
heavy 1: not shown
heavy 2: not shown
light: B1 light
notes: He Ab; copies: 1 + 1 + 2
B50: GpH7-A5/GpH7-B3 variant L234_20W/GpL16-k0 (antibody, human IgG1, kappa)
heavy 1: not shown
heavy 2: not shown
light: B1 light
notes: He Ab; copies: 1 + 1 + 2
B51: GpH7-A5/GpH7-B3 variant L235_19Q/GpL16-k0 (antibody, human IgG1, kappa)
heavy 1: not shown
heavy 2: not shown
light: B1 light
notes: He Ab; copies: 1 + 1 + 2
B52: GpH7-A5/GpH7-B3 variant K326_14T/GpL16-k0 (antibody, human IgG1, kappa)
heavy 1: not shown
heavy 2: not shown
light: B1 light
notes: He Ab; copies: 1 + 1 + 2
B53: GpH7-A5/GpH7-B3 variant L234_09D/GpL16-k0 (antibody, human IgG1, kappa)
heavy 1: not shown
heavy 2: not shown
light: B1 light
notes: He Ab; copies: 1 + 1 + 2
B54: GpH7-A5/GpH7-B3 variant L234_19Q/GpL16-k0 (antibody, human IgG1, kappa)
heavy 1: not shown
heavy 2: not shown
light: B1 light
notes: He Ab; copies: 1 + 1 + 2
B55: GpH7-A5/GpH7-B3 variant L328_15Y/GpL16-k0 (antibody, human IgG1, kappa)
heavy 1: not shown
heavy 2: not shown
light: B1 light
notes: He Ab; copies: 1 + 1 + 2
B56: GpH7-A5/GpH7-B3 variant L328_13S/GpL16-k0 (antibody, human IgG1, kappa)
heavy 1: not shown
heavy 2: not shown
light: B1 light
notes: He Ab; copies: 1 + 1 + 2

Target: T1, FcγRIIIa extracellular domain, C-terminal His tag (human, UniProt P08637 17-208)
T1 construct: extracellular domain; also called 3a
T1 sequence (P08637 other isoform, or with tags, fused parts or gaps): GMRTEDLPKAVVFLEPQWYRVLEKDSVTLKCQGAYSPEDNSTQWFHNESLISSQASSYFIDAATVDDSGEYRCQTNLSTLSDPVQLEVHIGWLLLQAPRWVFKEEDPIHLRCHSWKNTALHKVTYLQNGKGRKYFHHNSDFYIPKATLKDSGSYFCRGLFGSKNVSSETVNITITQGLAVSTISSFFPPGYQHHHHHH
Experiment: SPR, binding activity relative to GpH7-A5/GpH7-B3/GpL16-k0 (=100)

| He/Con 3a [%] | Binder |
| --- | --- |
| 117 | B1 |
| 81.3 | B2 |
| 94.6 | B3 |
| 75.6 | B4 |
| 106 | B5 |
| 67.2 | B6 |
| 126 | B7 |
| 114 | B8 |
| 76.8 | B9 |
| 80.8 | B10 |
| 138 | B11 |
| 77.8 | B12 |
| 85.6 | B13 |
| 126 | B14 |
| 101 | B15 |
| 51.1 | B16 |
| 72 | B17 |
| 68.1 | B18 |
| 82.9 | B19 |

| He/Con 3a [%] | Binder |
| --- | --- |
| 65 | B20 |
| 118 | B21 |
| 69.8 | B22 |
| 85.1 | B23 |
| 134 | B24 |
| 88.5 | B25 |
| 111 | B26 |
| 77.4 | B27 |
| 80.9 | B28 |
| 127 | B29 |
| 57.1 | B30 |
| 86.4 | B31 |
| 88.3 | B32 |
| 68.6 | B33 |
| 92.8 | B34 |
| 55.8 | B35 |
| 55.9 | B36 |
| 76.4 | B37 |
| 153 | B38 |

| He/Con 3a [%] | Binder |
| --- | --- |
| 73.2 | B39 |
| 148 | B40 |
| 88.2 | B41 |
| 69.7 | B42 |
| 117 | B43 |
| 73.8 | B44 |
| 56.7 | B45 |
| 99.5 | B46 |
| 124 | B47 |
| 93.7 | B48 |
| 81.5 | B49 |
| 103 | B50 |
| 68.1 | B51 |
| 140 | B52 |
| 113 | B53 |
| 77.1 | B54 |
| 70.2 | B55 |
| 73.7 | B56 |
